In PMC9482650, “Quantitative fragmentomics allow affinity mapping of interactomes” (Nature Communications, 2022):

T1: DLG3_2, Q92796
T1 sequence (Q92796 221-321, limits assumed, looked up): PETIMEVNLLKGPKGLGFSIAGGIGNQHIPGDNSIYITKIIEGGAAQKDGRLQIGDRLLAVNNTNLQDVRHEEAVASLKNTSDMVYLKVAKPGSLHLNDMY

T2: TIAM2, Q8IVF5
T2 sequence (Q8IVF5 885-986, limits assumed, looked up): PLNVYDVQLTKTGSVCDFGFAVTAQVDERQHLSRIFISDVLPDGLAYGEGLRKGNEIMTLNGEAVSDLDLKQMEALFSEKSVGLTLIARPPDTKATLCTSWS

T3: LNX2_3, Q8N448
T3 sequence (Q8N448 463-564, limits assumed, looked up): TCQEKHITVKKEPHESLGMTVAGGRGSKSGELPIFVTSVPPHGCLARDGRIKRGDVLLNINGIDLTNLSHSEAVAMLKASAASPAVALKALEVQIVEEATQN

T4: HTRA3, P83110
T4 sequence (P83110 354-453, limits assumed, looked up): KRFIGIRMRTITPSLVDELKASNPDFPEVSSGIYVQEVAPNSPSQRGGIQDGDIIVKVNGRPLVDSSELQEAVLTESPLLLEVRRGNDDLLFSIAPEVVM

T5: ARHGAP21, Q5T5U3
T5 sequence (Q5T5U3 45-169, limits assumed, looked up): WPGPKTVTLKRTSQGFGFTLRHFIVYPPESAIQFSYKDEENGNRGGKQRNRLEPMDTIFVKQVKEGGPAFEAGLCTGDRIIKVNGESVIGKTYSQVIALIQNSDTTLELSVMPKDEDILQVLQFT

T6: GRIP1_5, Q9Y3R0
T6 sequence (Q9Y3R0 568-668, limits assumed, looked up): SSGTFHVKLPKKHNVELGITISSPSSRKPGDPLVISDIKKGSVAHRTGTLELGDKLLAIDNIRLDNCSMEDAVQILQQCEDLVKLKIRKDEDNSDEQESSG

T7: RADIL, Q96JH8
T7 sequence (Q96JH8 971-1071, limits assumed, looked up): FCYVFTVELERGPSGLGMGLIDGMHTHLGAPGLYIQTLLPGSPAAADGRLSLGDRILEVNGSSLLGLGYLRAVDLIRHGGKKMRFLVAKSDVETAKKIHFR

T8: GRIP1_4, Q9Y3R0
T8 sequence (Q9Y3R0 467-571, limits assumed, looked up): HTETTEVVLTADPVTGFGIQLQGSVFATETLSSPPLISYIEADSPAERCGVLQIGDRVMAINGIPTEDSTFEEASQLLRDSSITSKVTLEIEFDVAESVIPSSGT

T9: NHERF3_1, Q5T2W1
T9 sequence (Q5T2W1 4-100, limits assumed, looked up): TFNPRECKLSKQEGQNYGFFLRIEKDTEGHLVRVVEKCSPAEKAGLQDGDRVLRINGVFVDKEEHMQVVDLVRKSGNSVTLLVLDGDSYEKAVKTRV

T10: MPP2, Q14168
T10 sequence (Q14168 180-250, limits assumed, looked up): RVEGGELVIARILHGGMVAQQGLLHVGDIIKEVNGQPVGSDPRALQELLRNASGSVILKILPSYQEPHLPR

T11: LIN7B, Q9HAP6
T11 sequence (Q9HAP6 88-185, limits assumed, looked up): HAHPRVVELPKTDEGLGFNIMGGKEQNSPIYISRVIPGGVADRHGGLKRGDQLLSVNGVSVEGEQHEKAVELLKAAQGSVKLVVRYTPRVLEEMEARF

T12: LNX2_2, Q8N448
T12 sequence (Q8N448 334-432, limits assumed, looked up): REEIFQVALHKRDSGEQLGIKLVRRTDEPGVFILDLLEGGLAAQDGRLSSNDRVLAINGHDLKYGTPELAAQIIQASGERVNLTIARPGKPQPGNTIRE


Tests used:
Experiment in all cases: holdup assay
Design in all cases: key: below the threshold = too weak to quantify, mostly under pKd 3.1 to 4
Conditions in all cases: plain residues with an end cap or a label only (N-terminal biotin on a linker: ado-ado)
[1] = target: IL16_3, Q14005
Sequence of IL16_3, Q14005 (Q14005 1107-1207): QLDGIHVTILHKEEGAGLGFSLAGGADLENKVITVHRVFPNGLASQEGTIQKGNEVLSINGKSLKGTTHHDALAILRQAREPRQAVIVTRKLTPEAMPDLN

[2] = target: GRIP2_5, Q9C0E4
Sequence of GRIP2_5, Q9C0E4 (Q9C0E4 544-642): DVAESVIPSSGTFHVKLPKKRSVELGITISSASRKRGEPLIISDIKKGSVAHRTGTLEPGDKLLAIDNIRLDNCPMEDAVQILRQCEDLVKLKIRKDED

[3] = target: T1, DLG3_2, Q92796
[4] = target: MAGI2_2, Q86UL8
Sequence of MAGI2_2, Q86UL8 (Q86UL8 410-522): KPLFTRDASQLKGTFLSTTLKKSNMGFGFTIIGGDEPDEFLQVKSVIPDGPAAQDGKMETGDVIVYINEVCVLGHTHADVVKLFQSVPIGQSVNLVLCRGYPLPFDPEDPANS

[5] = target: T2, TIAM2, Q8IVF5
[6] = target: LAP2, Q96RT1
Sequence of LAP2, Q96RT1 (Q96RT1 other isoform, or with tags, fused parts or gaps): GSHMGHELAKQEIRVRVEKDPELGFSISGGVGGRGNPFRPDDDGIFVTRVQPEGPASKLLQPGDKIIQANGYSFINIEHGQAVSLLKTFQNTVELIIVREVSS

[7] = target: T3, LNX2_3, Q8N448
[8] = target: T4, HTRA3, P83110
[9] = target: FRMPD4, Q14CM0
Sequence of FRMPD4, Q14CM0 (Q14CM0 67-160): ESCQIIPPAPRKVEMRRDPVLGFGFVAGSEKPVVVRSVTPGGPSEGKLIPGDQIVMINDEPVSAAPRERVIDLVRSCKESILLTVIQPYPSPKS

[10] = target: T5, ARHGAP21, Q5T5U3
[11] = target: T6, GRIP1_5, Q9Y3R0
[12] = target: T7, RADIL, Q96JH8
[13] = target: T8, GRIP1_4, Q9Y3R0
[14] = target: T9, NHERF3_1, Q5T2W1
[15] = target: T10, MPP2, Q14168
[16] = target: DLG1_1, Q12959
[17] = target: NOS1, P29475
Sequence of NOS1, P29475 (P29475 9-101): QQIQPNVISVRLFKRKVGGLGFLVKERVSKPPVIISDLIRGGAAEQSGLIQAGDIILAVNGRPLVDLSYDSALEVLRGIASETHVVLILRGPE

[18] = target: Inadl_2, Q8NI35
Sequence of Inadl_2, Q8NI35 (Q8NI35 238-335): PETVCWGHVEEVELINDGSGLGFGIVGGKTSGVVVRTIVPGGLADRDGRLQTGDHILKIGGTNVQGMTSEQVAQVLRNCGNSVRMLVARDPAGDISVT

[19] = target: PARD3_3, Q8TEW0
Sequence of PARD3_3, Q8TEW0 (Q8TEW0 582-685): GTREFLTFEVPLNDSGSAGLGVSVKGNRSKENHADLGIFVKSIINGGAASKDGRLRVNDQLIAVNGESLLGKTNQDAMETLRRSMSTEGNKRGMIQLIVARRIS

[20] = target: IL16_4, Q14005
Sequence of IL16_4, Q14005 (Q14005 1229-1329): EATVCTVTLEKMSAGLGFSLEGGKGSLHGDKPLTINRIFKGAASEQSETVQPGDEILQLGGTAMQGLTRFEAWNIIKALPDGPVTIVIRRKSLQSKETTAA

[21] = target: T11, LIN7B, Q9HAP6
[22] = target: MAST2, Q6P0Q8
Sequence of MAST2, Q6P0Q8 (Q6P0Q8 1099-1202): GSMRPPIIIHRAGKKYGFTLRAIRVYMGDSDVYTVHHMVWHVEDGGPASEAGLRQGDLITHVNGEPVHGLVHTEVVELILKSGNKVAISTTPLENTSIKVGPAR

[23] = target: SNX27, Q96L92
[24] = target: TJP2_1, Q9UDY2
Sequence of TJP2_1, Q9UDY2 (Q9UDY2 24-128): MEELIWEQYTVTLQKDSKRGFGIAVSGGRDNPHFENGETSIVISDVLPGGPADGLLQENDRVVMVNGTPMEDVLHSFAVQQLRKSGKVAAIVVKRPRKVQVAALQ

[25] = target: T12, LNX2_2, Q8N448

Binder	pKd [1]	pKd [2]	pKd [3]	pKd [4]	pKd [5]	pKd [6]	pKd [7]	pKd [8]	pKd [9]	pKd [10]	pKd [11]	pKd [12]	pKd [13]	pKd [14]	pKd [15]	pKd [16]	pKd [17]	pKd [18]	pKd [19]	pKd [20]	also measured
HLRARKSEWV [GJD4, Q96KN9]	below the threshold	below the threshold	4.33	below the threshold	4.1	4.11	below the threshold	5.81	below the threshold	3.56	below the threshold	4.85	below the threshold	4.08	below the threshold	below the threshold	4.89	below the threshold	below the threshold	below the threshold	pKd [21]: 3.81; pKd [22]: below the threshold; pKd [23]: 4.38; pKd [24]: 6.04; pKd [25]: 5
PEYLGLDVPV [ERBB2, P04626]	below the threshold	below the threshold	3.53	below the threshold	below the threshold	4.26	below the threshold	below the threshold	4.39	4.12	below the threshold	below the threshold	below the threshold	below the threshold	below the threshold	below the threshold	3.9	below the threshold	3.52	3.72	pKd [21]: below the threshold; pKd [22]: 4.21; pKd [23]: 3.94; pKd [24]: below the threshold; pKd [25]: 3.96
AKPSRISTVV [IQSEC2, Q5JU85]	below the threshold	below the threshold	5.33	5.23	3.91	below the threshold	below the threshold	3.65	below the threshold	below the threshold	below the threshold	4.32	below the threshold	below the threshold	below the threshold	4.81	3.65	below the threshold	below the threshold	3.51	pKd [21]: 3.73; pKd [22]: 5.11; pKd [23]: 3.98; pKd [24]: 4.46; pKd [25]: 5.09
DDPSTAETVL [ABCA7, Q8IZY2]	below the threshold	below the threshold	4.37	below the threshold	3.99	3.71	below the threshold	below the threshold	4.1	3.8	below the threshold	3.52	below the threshold	4.64	below the threshold	below the threshold	3.52	below the threshold	4.56	below the threshold	pKd [21]: 3.89; pKd [22]: 5.64; pKd [23]: 5.6; pKd [24]: below the threshold; pKd [25]: below the threshold
QHKTQLQTLI [BPIFA2, Q96DR5]	below the threshold	below the threshold	4.08	4.43	below the threshold	below the threshold	below the threshold	below the threshold	below the threshold	4.01	below the threshold	3.91	below the threshold	5.29	below the threshold	4.34	4.2	below the threshold	3.83	below the threshold	pKd [21]: below the threshold; pKd [22]: 4.92; pKd [23]: 3.83; pKd [24]: 3.66; pKd [25]: 4
VDSTVKVWTC [TRAF7, Q6Q0C0]	below the threshold	below the threshold	4.18	3.65	4.22	below the threshold	below the threshold	5.13	4.02	4.36	below the threshold	4.2	below the threshold	below the threshold	below the threshold	below the threshold	below the threshold	3.65	4.66	below the threshold	pKd [21]: 3.64; pKd [22]: 3.74; pKd [23]: below the threshold; pKd [24]: below the threshold; pKd [25]: 5.42
